The results in this text go back to PMC3689823.

The target in assay [1] is YFP-Clu (human). The experiment in a line: FRET or BRET; sensitized emission FRET in co-transfected HEK293T cells, CFP donor and YFP receptor, laser confocal microscope. (In BRET a luciferase serves as donor, and the signal depends on an acceptor being close.)
The target in assay [2] is YFP-Clu (human). Description: FRET or BRET; receptor (acceptor) photobleaching FRET in co-transfected HEK293T cells, CFP donor and YFP receptor, bleached at 515 nm for 60 s.

Consider “CFP-SelR′ (from UniProt Q9NZV6 1-116) (enzyme)”, for which the FRET efficiency in the assay with YFP-Clu (human) [1] worked out at 40%; with YFP-Clu (human) [2], 41.8%.
